Results taken from article PMC8838988.

Biological target: PiCDPK1, full-length 6X N-terminal His-fusion protein (Petunia inflata)
Sequence (main, as listed by the source): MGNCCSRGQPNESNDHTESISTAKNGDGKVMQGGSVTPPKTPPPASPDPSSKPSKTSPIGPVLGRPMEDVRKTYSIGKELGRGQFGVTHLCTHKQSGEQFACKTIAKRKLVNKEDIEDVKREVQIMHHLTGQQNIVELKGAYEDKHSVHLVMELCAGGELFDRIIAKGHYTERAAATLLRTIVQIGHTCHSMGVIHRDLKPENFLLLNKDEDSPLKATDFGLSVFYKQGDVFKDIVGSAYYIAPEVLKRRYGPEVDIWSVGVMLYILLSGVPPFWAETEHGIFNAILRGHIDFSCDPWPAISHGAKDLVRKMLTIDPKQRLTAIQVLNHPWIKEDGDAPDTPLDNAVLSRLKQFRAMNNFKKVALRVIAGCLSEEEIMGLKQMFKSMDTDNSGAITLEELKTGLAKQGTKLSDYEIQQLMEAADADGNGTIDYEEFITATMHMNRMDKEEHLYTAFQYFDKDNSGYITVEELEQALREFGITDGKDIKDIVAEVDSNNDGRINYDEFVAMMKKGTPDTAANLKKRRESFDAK

A Km of the phosphorylation of PiRhoGDI1 by PiCDPK1 (Michaelis-Menten conditions) of 2.2 µM and a Vmax of the phosphorylation of PiRhoGDI1 by PiCDPK1 (Michaelis-Menten conditions) of 1920 pmol/min/mg were found for “PiRhoGDI1, full-length 6X N-terminal His-fusion protein (natural protein)” in this work.
